Assay results taken from patent US20260015426A1 (23ANDME, published 2026).
Residue numbers refer to the chain shown, from its start. Names and notes keep the numbering of the source.

T1: hu-M-IL1RAP construct, positions S21-T367 (extracellular domain of the membrane form of human IL1RAP) (human, UniProt Q9NPH3 21-367)
T1 construct: Biotinylated when captured on the Biacore chip
T1 sequence: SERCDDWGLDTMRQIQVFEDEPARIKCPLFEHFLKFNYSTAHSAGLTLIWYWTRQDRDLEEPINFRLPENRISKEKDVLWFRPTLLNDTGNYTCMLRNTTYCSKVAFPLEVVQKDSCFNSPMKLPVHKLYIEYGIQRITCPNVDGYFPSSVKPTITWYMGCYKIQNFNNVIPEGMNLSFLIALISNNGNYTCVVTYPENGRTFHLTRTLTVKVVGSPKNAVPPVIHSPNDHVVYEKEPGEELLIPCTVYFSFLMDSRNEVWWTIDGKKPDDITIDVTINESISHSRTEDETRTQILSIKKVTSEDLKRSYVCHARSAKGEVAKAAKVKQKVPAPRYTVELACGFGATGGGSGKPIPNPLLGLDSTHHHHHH

T2: human IL1RAP (hu-IL1RAP) on human cells (human, UniProt Q9NPH3 21-570)
T2 sequence: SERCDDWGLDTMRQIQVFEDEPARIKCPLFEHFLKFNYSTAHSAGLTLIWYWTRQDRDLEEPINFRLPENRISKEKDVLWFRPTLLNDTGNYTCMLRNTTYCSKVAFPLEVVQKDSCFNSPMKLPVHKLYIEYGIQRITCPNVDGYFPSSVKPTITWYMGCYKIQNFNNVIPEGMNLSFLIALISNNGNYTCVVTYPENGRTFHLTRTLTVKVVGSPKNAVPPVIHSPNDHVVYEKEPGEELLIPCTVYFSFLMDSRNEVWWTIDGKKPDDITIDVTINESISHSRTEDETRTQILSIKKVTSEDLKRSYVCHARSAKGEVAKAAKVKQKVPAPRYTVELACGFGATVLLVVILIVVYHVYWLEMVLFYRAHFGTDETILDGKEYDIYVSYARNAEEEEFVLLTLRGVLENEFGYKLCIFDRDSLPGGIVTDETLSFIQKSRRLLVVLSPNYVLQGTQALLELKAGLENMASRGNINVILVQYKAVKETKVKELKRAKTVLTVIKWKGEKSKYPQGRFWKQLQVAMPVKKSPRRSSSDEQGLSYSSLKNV

B1: Parent Fab (Fab of h11C5_C59Y/A43S) (Fab, V domains shown)
VH: EVQLVESGGGLVQPGGSLRLSCAASGFTFSNYAMSWVRQAPGKGLEWVATVTEGGDYNYYLDDVKGRFTISRDNAKNSLYLQMNSLRAEDTAVYYCARDRWPYFFDYWGQGTLVTVSS
VL: DIQMTQSPSSLSASVGDRVTITCRASENIYSNLAWYQQKPGKSPKLLVYGAKNLADGVPSRFSGSGSGTDYTLTISSLQPEDFATYYCQHFWTTPRTFGGGTKVEIK
notes: Fab with 8xHis tag; also called parental Fab of h11C5_C59Y/A43S
B2: H12 Fab (VH M34V) (Fab, V domains shown)
VH: B1 VH with M34V
VL: B1 VL
notes: Fab with 8xHis tag
B3: H7 Fab (VH F29E/N57G/R96A) (Fab, V domains shown)
VH: B1 VH with F29E, N58G, R100A
VL: B1 VL
notes: Fab with 8xHis tag
B4: H11 Fab (VH W97F) (Fab, V domains shown)
VH: B1 VH with W101F
VL: B1 VL
notes: Fab with 8xHis tag
B5: H10 Fab (VH F29S/D55G/R96S) (Fab, V domains shown)
VH: B1 VH with F29S, D56G, R100S
VL: B1 VL
notes: Fab with 8xHis tag
B6: K17 Fab (VL A51Y/W92K) (Fab, V domains shown)
VH: B1 VH
VL: B1 VL with A51Y, W92K
notes: Fab with 8xHis tag
B7: H9 Fab (VH G54V/R96A) (Fab, V domains shown)
VH: B1 VH with G55V, R100A
VL: B1 VL
notes: Fab with 8xHis tag
B8: H8 Fab (VH F29S/E52aV/R96A) (Fab, V domains shown)
VH: B1 VH with F29S, E53V, R100A
VL: B1 VL
notes: Fab with 8xHis tag
B9: K17 IgG (VL-A51Y/W92K) (antibody, V domains shown)
VH: B1 VH
VL: B1 VL with A51Y, W92K
B10: Parent IgG Ab (full-length IgG of h11C5_C59Y/A43S) (antibody, V domains shown)
VH: B1 VH
VL: B1 VL
B11: K13 IgG (VL-A51Y/W92I) (antibody, V domains shown)
VH: B1 VH
VL: B1 VL with A51Y, W92I
B12: K10/H3 IgG (VL-A51Y, VH-V51S) (antibody, V domains shown)
VH: B1 VH with V51S
VL: B1 VL with A51Y
B13: K10/H2 IgG (VL-A51Y, VH-R96D) (antibody, V domains shown)
VH: B1 VH with R100D
VL: B1 VL with A51Y
B14: K10 IgG (VL-A51Y) (antibody, V domains shown)
VH: B1 VH
VL: B1 VL with A51Y
B15: K18 Fab (VL A51Y/L33G) (Fab, V domains shown)
VH: B1 VH
VL: B1 VL with L33G, A51Y
notes: Fab with 8xHis tag
B16: K5 Fab (VL Y30W/W92L) (Fab, V domains shown)
VH: B1 VH
VL: B1 VL with Y30W, W92L
notes: Fab with 8xHis tag
B17: H5 Fab (VH V51S/G54H) (Fab, V domains shown)
VH: B1 VH with V51S, G55H
VL: B1 VL
notes: Fab with 8xHis tag
B18: K6 Fab (VL Y30W/W92F) (Fab, V domains shown)
VH: B1 VH
VL: B1 VL with Y30W, W92F
notes: Fab with 8xHis tag
B19: K11 Fab (VL A51R/K52G) (Fab, V domains shown)
VH: B1 VH
VL: B1 VL with A51R, K52G
notes: Fab with 8xHis tag
B20: K13/H12 Fab (VL-A51Y/W92I, VH-M34V) (Fab, V domains shown)
VH: B1 VH with M34V
VL: B1 VL with A51Y, W92I
notes: Fab with 8xHis tag
B21: K10/H3 Fab (VL-A51Y, VH-V51S) (Fab, V domains shown)
VH: B1 VH with V51S
VL: B1 VL with A51Y
notes: Fab with 8xHis tag
B22: K10/H2 Fab (VL-A51Y, VH-R96D) (Fab, V domains shown)
VH: B1 VH with R100D
VL: B1 VL with A51Y
notes: Fab with 8xHis tag

Each binder was assayed against T1, hu-M-IL1RAP construct, positions … (assay: SPR, Fab analyte, 37 C).
Procedure: (§1) Surface plasmon resonance (SPR) analysis was used to determine binding affinity for hu-M-IL1RAP of the purified Fabs containing the selected single, double, and triple mutations in either the VL or VH regions using a BIACORE™ 8K instrument. […] For kinetics measurements, 5 nM biotinylated hu-M-IL1RAP was captured at 10 μL/min to achieve ˜50 response units in the second flow cell (FC2). FC1 was kept as a reference. […] The sensorgrams were recorded and subjected to reference and buffer subtraction before data analysis with the BIACORE® 8K Evaluation Software (version 1.1.1.7442). Association rates (kₒₙ) and dissociation rates (koff) were calculated using a simple one-to-one Langmuir binding model. The equilibrium dissociation constant (KD) was calculated as the ratio of koff/kₒₙ.

Binder	apparent Kd (pooled screen) [pM]	apparent koff (pooled screen) [s⁻¹]	apparent kon (pooled screen) [M⁻¹ s⁻¹]	Kd [pM]	koff [s⁻¹]	kon [M⁻¹ s⁻¹]
B1	268	0.00163	6.08e+06	–	–	–
B2	–	–	–	305	0.00174	5.7e+06
B3	–	–	–	99.8	0.000511	5.13e+06
B4	–	–	–	460	0.00441	9.58e+06
B5	–	–	–	131	0.000702	5.34e+06
B6	–	–	–	44.1	0.000159	3.6e+06
B7	–	–	–	81.1	0.000401	4.94e+06
B8	–	–	–	170	0.000899	5.27e+06

The binders below were run against T2, human IL1RAP (hu-IL1RAP) on human cells (assay: cell-based or functional assay).

Binder	HEK-Blue, IL-1β, % inhibition at 100 nM (IgG) [%]	HEK-Blue, IL-1β, IC50 (IgG) [pM]	HEK-Blue, IL-33, % inhibition at 100 nM (IgG) [%]	HEK-Blue, IL-33, IC50 (IgG) [pM]	HEK-Blue, IL-36α, % inhibition at 100 nM (IgG) [%]	HEK-Blue, IL-36α, IC50 (IgG) [pM]
B9	100	468	99	2740	100	495
B10	99	363	99	2040	89	340
B11	100	332	100	1770	100	303
B12	100	177	99	354	100	280
B13	100	285	100	1060	100	340
B14	100	230	100	1370	100	247

What follows are binders tested against T1, hu-M-IL1RAP construct, positions … (assay: SPR, Fab analyte, 25 C).
Procedure: as §1

Binder	apparent Kd (pooled screen) [pM]	apparent koff (pooled screen) [s⁻¹]	apparent kon (pooled screen) [M⁻¹ s⁻¹]	Kd [pM]	koff [s⁻¹]	kon [M⁻¹ s⁻¹]
B1	337	0.000468	1.39e+06	–	–	–
B15	–	–	–	18.9	0.000123	6.52e+06
B16	–	–	–	52.4	0.000268	5.11e+06
B17	–	–	–	50	0.000235	4.71e+06
B6	–	–	–	6.37	3.58e-05	5.63e+06
B18	–	–	–	14.7	6.25e-05	4.25e+06
B19	–	–	–	21.2	0.000102	4.83e+06

Target: T1, hu-M-IL1RAP construct, positions …
Test: SPR, Fab analyte, 37 C
Remark: another data set of the same source
Procedure: as §1

Binder	Kd [pM]	koff [s⁻¹]	kon [M⁻¹ s⁻¹]
B20	36.3	0.000178	4.9e+06
B21	24.2	0.000123	5.06e+06
B22	20.1	0.000111	5.54e+06

Target: T2, human IL1RAP (hu-IL1RAP) on human cells
Test: cell-based or functional assay
Remark: another data set of the same source

Binder	HEK-Blue, IL-1β, % inhibition at 100 nM (Fab) [%]	HEK-Blue, IL-1β, IC50 (Fab) [pM]	HEK-Blue, IL-33, % inhibition at 100 nM (Fab) [%]	HEK-Blue, IL-33, IC50 (Fab) [pM]	HEK-Blue, IL-36α, % inhibition at 100 nM (Fab) [%]	HEK-Blue, IL-36α, IC50 (Fab) [pM]
B1	96	7450	77	26400	96	5090
B21	99	642	98	2430	100	582
B6	100	1590	96	5380	100	1270
B22	100	552	99	2170	100	481
